Test results reported in the DeepSol protein solubility set.

experiment: soluble on expression in E. coli; label from the status in PepcDB or PDB records

Sequence	soluble on expression in E. coli
MSLNLGDLTNFVEKPLAAVSNIVNTPNSAGRYRPFYLRNLLDAVQGRNLNDAVKGKVVLITGGSSGIGAAAAKKIAEAGGTVVLVARTLENLENVANDIRAIRGNGGTAHVYPCDLSDMDAIAVMADQVLGDLGGVDILINNAGRSIRRSLELSYDRIHDYQRTMQLNYLGAVQLILKFIPGMRERHFGHIVNVSSVGVQTRAPRFGAYIASKAALDSLCDALQAETVHDNVRFTTVHMALVRTPMISPTTIYDKFPTLTPDQAAGVITDAIVHRPRRASSPFGQFAAVADAVNPAVMDRVRNRAFNMFGDSSAAKGSESQTDTSELDKRSETFVRATRGIHWEGHHHHHH	not soluble
MATPVPLVFNAPKRGMPPTHFADLNDEARIEALKELGLPKFRLNQIARHYYGRLEADPLTMTDLPEGARQEVKDALFPTLMSPLRVVETDDDTTQKTLWKLHDGTLLESVLMRYSDRSTLCISSQAGCGMACPFCATGQGGLDRNLSIGEIVDQVRNAAATMQSEGGRLSNIVFMGMGEPLANYKRVVSAVRQITQPSPAGFGISQRSVTVSTVGLAPAIRKLADEEMSVTLAVSLHTPDDELRDTLVPVNNRWPVAEVLDAARYYADKSGRRVSIEYALIRDVNDQDWRADMLGEKLHKALGSRVHVNLIPLNPTPGSKWDAAPKARQDEFVRRVIAKGVPCTVRDTKGQEIAAACGQLAAEESA	not soluble
MSLEAKRPEQTRVVVGMSGGVDSSVTALLLKEQGYDVIGIFMKNWDDTDENGVCTATEDYQDVVQVCNQLGIAYYAVNFEKEYWDKVFTYFLEEYKAGRTPNPDVMCNKEIKFKAFLNHALTLGADYVATGHYAQVKNVDGQYQLIRGKDPNKDQTYFLNALSQQQLSRVMFPLGHLEKKEVRAIAERAGLATAKKKDSTGICFIGKRDFKEFLSSYLPAQPGEMQTLDGEVKGTHDGLMYYTLGQRQGLGIGGSGEPWFVIGKNLEKNILYVGQGFHHPGLYSEGLRAIKVNWILRRESDEPFECTAKFRYRQPDQKVTVYPQSDGAVEVLFAEPQRAITPGQAVVFYDGDVCLGGGTIDHVLKKKEDRESAEGHHHHHH	soluble
APSCPAGSLCTYSGTGLSGARTVIPASDMEKAGTDGVKLPASARSFANGTHFTLRYGPARKVTCVRFPCYQYATVGKVAPGAQLRSLPSPGATVTVGQDLGD	soluble
MGSDKIHHHHHHMAAPDTPPDSPPPISAVEMPSGKDAGTENFPVGSVLLPARLRPHVARFYAFARAIDDIADSPDLDAAAKIDRLQGFEEAITGRDTTDPAYAKGHALRVSLEATGVPAIHGVELIAAFKQDAVKGRYATWAEMMDYCRLSAAPVGRYLIDLHGGSRAGYASSDALCVALQVINHLQDCQDDFRVLDRVYLPADWLAAEGASVSDLDRAACTPGLRRVLDRCLEGTRRLLDAARPLPGDIIDRRLGLEAAVIVSIAQTLTGRLARQDPLAQRVKLGKAATAFCAARACAAYLMVPGAYR	not soluble
MKPPICRRMSLPPVLAKKEGERIQVPEGGELVCYRNQEDQHLFLKIEYSRETMIKLSSSVFCYARPTGLKEVSDELPELLGLPHSIPLTDSPPNFECLPEPLAHVSGCNSHFSMNHPPPLLSPLRGPVTEADEAMRTLSSHRELQKRLQNMSMRGELSPSGCLVDSCDTPAIRQIRNPQFT	not soluble
MQPLVSVLICAYNVEKYFAQSLAAVVNQTWRNLDILIVDDGSTDGTPAIARRFQEQDGRIRIISNPRNLGFIASLNIGLDELAKSGGGGEYIARTDADDIASPGWIEKIVGEMEKDRSIIAMGAWLEVLSEENNKSVLAAIARNGAIWDKPTRHEDIVAVFPFGNPIHNNTMIMRRSVIDGGLRFDPAYIHAEDYKFWYEAGKLGRLAYYPEALVKYRFHQDQTSSKYNLQQRRTAWKIKEEIRAGYWKAAGIAVGADCLNYGLLKSTAYALYEKALSGQDIGCLRLFLYEYFLSLEKYSLTDLLDFLTDRVMRKLFAAPQYRKILKKMLRPWKYRSYLEHHHHHH	not soluble
MISIHFEKAHDCHQLFQQLQGYLTKYAELGLKGGIEAGGDETLYVNYENQYVNFYDSFQPLLASIFTDYVISTKEEEWLLDIIENMFYFTDEEEKEQIVAIARSILEGDLEDMPSLSMFTNRREYIYQAFSKHIEENMTFYYDPFLTFRLREYGELLIDCVELAIDEYMMEQEYQSMVETLRQFIHSRIPKRGVIYAVYDERFHFYDEHFRLISTDEIVYDLKEELVFEHGLSVEEMVISPLVSMLPETVKVFTNDEEHGVILTLQAIFQERLKVFPLKDSPHQHREELEHHHHHH	soluble
